Test results taken from patent US20240270821A1, “GIP/GLP1/GCG TRI-RECEPTOR AGONISTS AND USES THEREOF” (priority 2023, published 2024).
Numbering of substitutions follows the chain as printed.

Legend:
Assay in all cases: cell-based or functional assay
hGLP-1R = hGLP-1R (Homo sapiens, UniProt P43220)
[1] = target: T1, human GIP receptor (human) (UniProt P48546)
T1 sequence (looked up): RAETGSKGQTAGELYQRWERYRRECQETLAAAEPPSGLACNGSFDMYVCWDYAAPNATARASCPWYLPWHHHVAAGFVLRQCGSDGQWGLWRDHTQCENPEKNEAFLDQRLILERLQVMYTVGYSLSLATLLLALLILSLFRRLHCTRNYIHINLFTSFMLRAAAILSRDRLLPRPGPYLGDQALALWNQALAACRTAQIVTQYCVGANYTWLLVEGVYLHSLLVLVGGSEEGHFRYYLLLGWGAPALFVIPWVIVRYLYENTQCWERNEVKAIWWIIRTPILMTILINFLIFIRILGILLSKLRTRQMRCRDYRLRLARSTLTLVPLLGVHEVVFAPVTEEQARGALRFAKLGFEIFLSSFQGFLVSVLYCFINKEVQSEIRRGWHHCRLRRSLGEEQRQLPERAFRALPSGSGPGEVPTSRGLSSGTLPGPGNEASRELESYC

[2] = target: human glucagon receptor (human) (UniProt P47871)
human glucagon receptor (human), sequence (P47871 26-477): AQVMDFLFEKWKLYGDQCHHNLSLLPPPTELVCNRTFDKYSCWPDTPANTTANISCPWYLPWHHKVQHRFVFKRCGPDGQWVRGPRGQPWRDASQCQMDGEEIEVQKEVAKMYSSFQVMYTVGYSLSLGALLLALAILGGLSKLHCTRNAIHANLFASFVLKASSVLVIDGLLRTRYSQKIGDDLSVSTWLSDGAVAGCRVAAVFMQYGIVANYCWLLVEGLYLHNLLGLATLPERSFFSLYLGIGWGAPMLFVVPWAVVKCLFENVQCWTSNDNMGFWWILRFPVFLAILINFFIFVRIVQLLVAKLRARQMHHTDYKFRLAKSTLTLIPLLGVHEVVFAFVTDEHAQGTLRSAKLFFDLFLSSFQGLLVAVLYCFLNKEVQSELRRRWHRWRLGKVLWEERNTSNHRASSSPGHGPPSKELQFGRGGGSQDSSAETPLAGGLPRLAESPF

hGLP-1R, sequence (P43220 24-463): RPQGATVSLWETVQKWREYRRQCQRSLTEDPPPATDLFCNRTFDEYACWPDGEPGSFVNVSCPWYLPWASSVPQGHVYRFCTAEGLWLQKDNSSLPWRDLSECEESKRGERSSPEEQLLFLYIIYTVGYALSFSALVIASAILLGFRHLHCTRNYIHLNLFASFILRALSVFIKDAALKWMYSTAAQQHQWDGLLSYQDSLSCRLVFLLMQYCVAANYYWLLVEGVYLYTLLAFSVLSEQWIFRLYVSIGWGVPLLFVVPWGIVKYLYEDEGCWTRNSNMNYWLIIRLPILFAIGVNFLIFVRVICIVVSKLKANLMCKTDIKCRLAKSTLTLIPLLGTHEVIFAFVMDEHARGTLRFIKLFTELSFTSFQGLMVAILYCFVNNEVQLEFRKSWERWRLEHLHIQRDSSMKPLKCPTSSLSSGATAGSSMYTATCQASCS

B1: Example 131 (peptide)
chain: YXQGTFTSDFSXXLDKKAQXAFIEYLLEGGPSSGEPPPSGS
modifications: synthetic construct; SITE 2: note = 2-Aminoisobutyric Acid; SITE 12: note = L-ornithine; SITE 13: note = alpha-methyl-leucine; SITE 17: note = Lysine is chemically modified through conjugation of the epsilon-amino group of the Lysine side chain with (2-[2-(2-Amino-ethoxy)-ethoxy]-acetyl)-(gamma-Glu)
Q: Which results are given for B1?
A: Relative cAMP EC50 (hGLP-1R): 5.51 nM; cAMP Rel EC50, nM (in the presence of 1% HSA) (hGLP-1R): 984 nM; Relative cAMP EC50 [1]: 0.416 nM; cAMP Rel EC50, nM (in the presence of 1% HSA) [1]: 91.8 nM; Relative cAMP EC50 [2]: 2.64 nM; cAMP Rel EC50, nM (in the presence of 1% HSA) [2]: 976 nM

B2: Example 14 (peptide)
chain: B1 chain with X12K, E28A, E35A
modifications: non-natural residues, acyl lysine, C-terminal amide; synthetic construct; SITE 2: note = 2-Aminoisobutyric Acid; SITE 13: note = alpha-methyl-leucine; SITE 17: note = Lysine is chemically modified through conjugation of the epsilon-amino group of the Lysine side chain with (2-[2-(2-Amino-ethoxy)-ethoxy]-acetyl)-(gamma-Glu)-CO-(CH2) 18-CO2H; SITE 20: n
Q: With B2 as the binder, how does the Relative cAMP EC50 (hGLP-1R) read?
A: Its Relative cAMP EC50 is 1.67 nM.

Q: What about the cAMP Rel EC50 (in the presence of 1% HSA) (hGLP-1R) of the same binder?
A: Its cAMP Rel EC50 (in the presence of 1% HSA) is 232 nM.

Q: And the Relative cAMP EC50 [1]?
A: The Relative cAMP EC50 was 0.17 nM.

Q: And the cAMP Rel EC50 (in the presence of 1% HSA) [1]?
A: Its cAMP Rel EC50 (in the presence of 1% HSA) is 34.7 nM.

Q: What about the Relative cAMP EC50 [2] of the same binder?
A: Its Relative cAMP EC50 is 7.23 nM.

Q: And the cAMP Rel EC50 (in the presence of 1% HSA) [2]?
A: The cAMP Rel EC50 (in the presence of 1% HSA) was 1420 nM.

B3: Example 135 (peptide)
chain: B1 chain with G29A, S41E
modifications: synthetic construct; SITE 2: note = 2-Aminoisobutyric Acid; SITE 12: note = L-ornithine; SITE 13: note = alpha-methyl-leucine; SITE 17: note = Lysine is chemically modified through conjugation of the epsilon-amino group of the Lysine side chain with (2-[2-(2-Amino-ethoxy)-ethoxy]-acetyl)-(gamma-Glu)
Q: With B3 as the binder, how does the Relative cAMP EC50 (hGLP-1R) read?
A: The Relative cAMP EC50 was 3.3 nM.

Q: And the cAMP Rel EC50, nM (in the presence of 1% HSA) (hGLP-1R)?
A: Its cAMP Rel EC50, nM (in the presence of 1% HSA) is 472 nM.

Q: And the Relative cAMP EC50 [1]?
A: Its Relative cAMP EC50 is 0.246 nM.

Q: And the cAMP Rel EC50, nM (in the presence of 1% HSA) [1]?
A: The cAMP Rel EC50, nM (in the presence of 1% HSA) was 23.4 nM.

Q: What about the Relative cAMP EC50 [2] of the same binder?
A: Its Relative cAMP EC50 is 2.53 nM.

Q: And the cAMP Rel EC50, nM (in the presence of 1% HSA) [2]?
A: Its cAMP Rel EC50, nM (in the presence of 1% HSA) is 557 nM.

B4: Example 20 (peptide)
chain: B1 chain with X12K, Y25W, E28A, G40E, S41G
modifications: non-natural residues, acyl lysine, C-terminal amide; synthetic construct; SITE 2: note = 2-Aminoisobutyric Acid; SITE 13: note = alpha-methyl-leucine; SITE 17: note = Lysine is chemically modified through conjugation of the epsilon-amino group of the Lysine side chain with (2-[2-(2-Amino-ethoxy)-ethoxy]-acetyl)-(gamma-Glu)-CO-(CH2) 18-CO2H; SITE 20: n
Q: Which Relative cAMP EC50 (hGLP-1R) does the source give for B4 here?
A: The Relative cAMP EC50 was 2.45 nM.

Q: What about the cAMP Rel EC50 (in the presence of 1% HSA) (hGLP-1R) of the same binder?
A: The cAMP Rel EC50 (in the presence of 1% HSA) was 326 nM.

Q: What about the Relative cAMP EC50 [1] of the same binder?
A: Its Relative cAMP EC50 is 0.381 nM.

Q: And the cAMP Rel EC50 (in the presence of 1% HSA) [1]?
A: The cAMP Rel EC50 (in the presence of 1% HSA) was 42.3 nM.

Q: What about the Relative cAMP EC50 [2] of the same binder?
A: The Relative cAMP EC50 was 15.4 nM.

Q: And the cAMP Rel EC50 (in the presence of 1% HSA) [2]?
A: The cAMP Rel EC50 (in the presence of 1% HSA) was 587 nM.

B5: Example 130 (peptide)
chain: B1 chain with E35A, S39E
modifications: synthetic construct; SITE 2: note = 2-Aminoisobutyric Acid; SITE 12: note = L-ornithine; SITE 13: note = alpha-methyl-leucine; SITE 17: note = Lysine is chemically modified through conjugation of the epsilon-amino group of the Lysine side chain with (2-[2-(2-Amino-ethoxy)-ethoxy]-acetyl)-(gamma-Glu)
Q: What does the source list for B5?
A: Relative cAMP EC50 (hGLP-1R): 4.29 nM; cAMP Rel EC50, nM (in the presence of 1% HSA) (hGLP-1R): 865 nM; Relative cAMP EC50 [1]: 0.411 nM; cAMP Rel EC50, nM (in the presence of 1% HSA) [1]: 60.5 nM; Relative cAMP EC50 [2]: 3.74 nM; cAMP Rel EC50, nM (in the presence of 1% HSA) [2]: 1080 nM

B6: Example 27 (peptide)
chain: B1 chain with X12K, E24Q, E28A, G40E, S41G
modifications: Aib, αMeL, acylated Lys, C-terminal amide; synthetic construct; SITE 2: note = 2-Aminoisobutyric Acid; SITE 13: note = alpha-methyl-leucine; SITE 17: note = Lysine is chemically modified through conjugation of the epsilon-amino group of the Lysine side chain with (2-[2-(2-Amino-ethoxy)-ethoxy]-acetyl)-(gamma-Glu)-CO-(CH2) 18-CO2H; SITE 20: n
Q: Which results are given for B6?
A: Relative cAMP EC50 (hGLP-1R): 2.33 nM; cAMP Rel EC50 (in the presence of 1% HSA) (hGLP-1R): 464 nM; Relative cAMP EC50 [1]: 0.41 nM; cAMP Rel EC50 (in the presence of 1% HSA) [1]: 72.3 nM; Relative cAMP EC50 [2]: 8.91 nM; cAMP Rel EC50 (in the presence of 1% HSA) [2]: 1180 nM

B7: Example 144 (peptide)
chain: B1 chain with X12R, E35A
modifications: synthetic construct; SITE 2: note = 2-Aminoisobutyric Acid; SITE 13: note = alpha-methyl-leucine; SITE 17: note = Lysine is chemically modified through conjugation of the epsilon-amino group of the Lysine side chain with (2-[2-(2-Amino-ethoxy)-ethoxy]-acetyl)2-(gamma-Glu)-CO-(CH2 )16-CO2H; SITE 20:
Q: For B7, which Relative cAMP EC50 (hGLP-1R) is on record?
A: The Relative cAMP EC50 was 4.02 nM.

Q: What about the cAMP Rel EC50, nM (in the presence of 1% HSA) (hGLP-1R) of the same binder?
A: Its cAMP Rel EC50, nM (in the presence of 1% HSA) is 990 nM.

Q: What about the Relative cAMP EC50 [1] of the same binder?
A: Its Relative cAMP EC50 is 0.23 nM.

Q: And the cAMP Rel EC50, nM (in the presence of 1% HSA) [1]?
A: Its cAMP Rel EC50, nM (in the presence of 1% HSA) is 46.2 nM.

Q: And the Relative cAMP EC50 [2]?
A: Its Relative cAMP EC50 is 14.8 nM.

Q: What about the cAMP Rel EC50, nM (in the presence of 1% HSA) [2] of the same binder?
A: Its cAMP Rel EC50, nM (in the presence of 1% HSA) is 2600 nM.

B8: Example 142 (peptide)
chain: B1 chain with X12K, E35A
modifications: synthetic construct; SITE 2: note = 2-Aminoisobutyric Acid; SITE 13: note = alpha-methyl-leucine; SITE 17: note = Lysine is chemically modified through conjugation of the epsilon-amino group of the Lysine side chain with (2-[2-(2-Amino-ethoxy)-ethoxy]-acetyl)2-(gamma-Glu)-CO-(CH2 )16-CO2H; SITE 20:
Q: Which Relative cAMP EC50 (hGLP-1R) does the source give for B8 here?
A: Its Relative cAMP EC50 is 4.37 nM.

Q: And the cAMP Rel EC50, nM (in the presence of 1% HSA) (hGLP-1R)?
A: The cAMP Rel EC50, nM (in the presence of 1% HSA) was 391 nM.

Q: And the Relative cAMP EC50 [1]?
A: Its Relative cAMP EC50 is 0.216 nM.

Q: And the cAMP Rel EC50, nM (in the presence of 1% HSA) [1]?
A: The cAMP Rel EC50, nM (in the presence of 1% HSA) was 14.1 nM.

Q: What about the Relative cAMP EC50 [2] of the same binder?
A: Its Relative cAMP EC50 is 3.49 nM.

Q: What about the cAMP Rel EC50, nM (in the presence of 1% HSA) [2] of the same binder?
A: Its cAMP Rel EC50, nM (in the presence of 1% HSA) is 1230 nM.

B9: Example 1212 (peptide)
chain: YXQGTXTSDXXIXLDXXAQXEFIEXLIEGGPSSGAPPPSGSE
modifications: synthetic construct; SITE 2: note = 2-Aminoisobutyric Acid; SITE 6: note = alpha-methyl-2-fluoro-L-phenylalanine; SITE 10: note = 3-(4-Pyridyl)-L-alanine; SITE 11: note = alpha-methyl-L-serine; SITE 13: note = alpha-methyl-leucine; SITE 16: note = L-ornithine; SITE 17: note = Ornithine is chemically
Q: How did the Relative cAMP EC50 (hGLP-1R) turn out when B9 was run?
A: The Relative cAMP EC50 was 0.357 nM.

Q: What about the cAMP Rel EC50 (1% HSA) (hGLP-1R) of the same binder?
A: Its cAMP Rel EC50 (1% HSA) is 38.2 nM.

Q: What about the Relative cAMP EC50 [1] of the same binder?
A: The Relative cAMP EC50 was 0.00702 nM.

Q: And the cAMP Rel EC50 (1% HSA) [1]?
A: The cAMP Rel EC50 (1% HSA) was 0.614 nM.

Q: And the Relative cAMP EC50 [2]?
A: Its Relative cAMP EC50 is 1.71 nM.

Q: What about the cAMP Rel EC50 (1% HSA) [2] of the same binder?
A: Its cAMP Rel EC50 (1% HSA) is 230 nM.

B10: Example 1233 (peptide)
chain: B9 chain with X17Q
modifications: not fully specified; synthetic construct; SITE 2: note = 2-Aminoisobutyric Acid; SITE 6: note = alpha-methyl-2-fluoro-L-phenylalanine; SITE 10: note = 3-(4-Pyridyl)-L-alanine; SITE 11: note = alpha-methyl-L-serine; SITE 13: note = alpha-methyl-leucine; SITE 16: note = L-ornithine; SITE 20: note = 3-(4-Pyridyl)-L-alanine
Q: Which results are given for B10?
A: Relative cAMP EC50 (hGLP-1R): 1.09 nM; cAMP Rel EC50 (1% HSA) (hGLP-1R): 1.06 nM; Relative cAMP EC50 [1]: 0.012 nM; cAMP Rel EC50 (1% HSA) [1]: 0.00988 nM; Relative cAMP EC50 [2]: 9.48 nM; cAMP Rel EC50 (1% HSA) [2]: 9.9 nM

B11: Example 1236 (peptide)
chain: YXQGTXTSDXSIXLDXKAAXAFIEXLLEGGPSSGEPPPS
modifications: synthetic construct; SITE 2: note = 2-Aminoisobutyric Acid; SITE 6: note = alpha-methyl-2-fluoro-L-phenylalanine; SITE 10: note = 3-(4-Pyridyl)-L-alanine; SITE 13: note = alpha-methyl-leucine; SITE 16: note = L-ornithine; SITE 17: note = Lysine is chemically modified through conjugation of the epsil
Q: B11 was tested. Which Relative cAMP EC50 (hGLP-1R) did it give?
A: Its Relative cAMP EC50 is 0.304 nM.

Q: And the cAMP Rel EC50 (1% HSA) (hGLP-1R)?
A: The cAMP Rel EC50 (1% HSA) was 95.8 nM.

Q: What about the Relative cAMP EC50 [1] of the same binder?
A: The Relative cAMP EC50 was 0.052 nM.

Q: What about the cAMP Rel EC50 (1% HSA) [1] of the same binder?
A: Its cAMP Rel EC50 (1% HSA) is 11.9 nM.

Q: What about the Relative cAMP EC50 [2] of the same binder?
A: Its Relative cAMP EC50 is 0.947 nM.

Q: What about the cAMP Rel EC50 (1% HSA) [2] of the same binder?
A: Its cAMP Rel EC50 (1% HSA) is 502 nM.
